# B1: E. coli pdf: Iron form of E. coli peptide deformylase, C-terminally His tagged, known to be unstable, used for comparison (protein, UniProt P0A6K3 2-169, looked up)
# Peptide deformylase: SVLQVLHIPDERLRKVAKPVEEVNAEIQRIVDDMFETMYAEEGIGLAATQVDIHQRIIVIDVSENRDERLVLINPELLEKSGETGIEEGCLSIPEQRALVPRAEKVKIRALDRDGKPFELEADGLLAICIQHEMDHLVGKLFMDYLSPLKQQRIRQKVEKLDRLKARA
# modifications: C-terminal His tag; iron form
# B2: Fe complex of pdf: Fe complex of peptide deformylase of the prior art (background, E. coli enzyme context) (protein, UniProt P0A6K3 2-169, looked up)
# Peptide deformylase: B1 Peptide deformylase
# modifications: iron form
# Tests used:
# [1] = Stability of Fe forms of pdf at serial dilutions with or without catalase; pdf assay coupled to Vibrio aminopeptidase; format: biochemical
# Protocol: A description of the optimized assay conditions is as follows. The final assay solution contained 50 mM Hepes, 10 mM NaCl, pH 7.0, 0.1% K-casein (Sigma Chemical Co.; St. Louis, Mo.), 100 micromolar formyl-Met-Leu-p-nitroanilide (prepared by standard methods and commercially available from Bachem Bioscience, Inc.; Philadelphia, Pa.; Catalog No. L2030), 5 nanograms of pdf protein (iron form) or 100 nanograms of pdf protein (zinc form), and V. proteolytica aminopeptidase.
# (A) 25 microliters of inhibitor in 15% dimethyl sulfoxide (DMSO) (maximum) was pipetted into 96 well microtiter plates (Immulon II from Dynex Technologies; Chantilly, Va.).
# (B) 100 microliters of bulk assay solution was pipetted next. This solution is described as follows, and required that the reagents be mixed in the order shown below (enough for 100 assays):
# (C) The plate was preincubated at room temperature for 10 minutes.
# (D) Finally, 25 microliters of 0.6 mM f-Met-Leu-p-nitroanilide (prepared by adding 120 microliters of 20 mM stock in 100% MeOH to 3,880 microliters of assay buffer) was added.
# (E) Each plate was examined in a SpectraMax 250 reader (Molecular Devices Corp.; Sunnyvale, Calif.) using an absorbance of 405 nm. Time points were taken every 20 seconds over a 30 minute time course at 25° C. Since oxidation might be an issue, the plate was mixed to begin the reaction, but not prior to subsequent time points. Addition of anti-oxidant reagents is not required, and preferably reducing agents are not added. Each line was checked for linearity over time and the resulting R^2 value was expected to be greater than about 0.98 for assay validity.
# Expression of the iron form of S. aureus or E. coli pdf (known to be unstable) in E. coli was monitored after the addition of 1.6 mM FeCl3 in the media (Luria broth). Incubation was allowed to proceed for 1 hour prior to the addition of IPTG (0.4 mM). Induction continued for 3 hours at 37° C. Cells were isolated and extracted in the presence of catalase (10 micrograms/ml). The purpose of the catalase was to act as an oxygen scavenger to prevent the inactivation of the Fe form of the E. coil pdf. The extracts were subjected to Ni-NTA chromatography for the purification of the C-terminally His tagged versions of both the E. coli and S. aureus pdf proteins. The purified proteins (concentrated to at least 1 mg/ml by ultrafiltration using a membrane available from Amicon; Bedford, Mass.) were stored in the presence of 10 micrograms/ml (minimum concentration) catalase. To examine the stability of the Fe forms of the pdf proteins, dilutions of the proteins were made in the presence or absence of catalase, followed by assays of the enzymes (serially diluted) in the presence or absence of catalase (at 100 micrograms/ml). Assays were run using formyl-Met-Leu-p-nitroanilide as substrate, coupled to the Vibrio aminopeptidase.
# The results, which depict linear reactions catalyzed by pdf, are shown in FIG. 2 for S. aureus pdf and FIG. 3 for E. coli pdf. […] The rates shown are in mOD/minute, and each line represents a different concentration of the pdf in nanogram amounts as listed in the legend. […] This is consistent with a significant loss of enzyme activity in the absence of catalase only for the E. coli enzyme. See Rajagopalan et al., J. Amer. Chem. Soc., 119:12418-19 (1997).
# [2] = Fe complex, as reported in prior work; cited from earlier work
Molecule,"Vmax ([1]; 125 ng pdf, with added catalase) [mOD/minute]","Vmax ([1]; 125 ng pdf, without added catalase) [mOD/minute]","Vmax ([1]; 250 ng pdf, with added catalase) [mOD/minute]","Vmax ([1]; 250 ng pdf, without added catalase) [mOD/minute]","Vmax ([1]; 500 ng pdf, with added catalase) [mOD/minute]","Vmax ([1]; 500 ng pdf, without added catalase) [mOD/minute]","Vmax ([1]; 1000 ng pdf, with added catalase) [mOD/minute]","Vmax ([1]; 1000 ng pdf, without added catalase) [mOD/minute]","pdf activity as a function of dilution, with versus without catalase in the assay solution ([1]; catalase at 100 micrograms/ml or absent)",half-life [2]
B1,8.4,2.4,19.2,3.7,45.1,6.5,133,18.9,rapidly loses activity,–
B2,–,–,–,–,–,–,–,–,–,around 30 seconds

# From patent publication US20020102250A1, “Recombinant S. aureus peptide deformylase” (priority 2000, published 2002)
